In publication PMC7558026, “Exploring and applying the substrate promiscuity of a C-glycosyltransferase in the chemo-enzymatic synthesis of bioactive C-glycosides” (Nature Communications, 2020):
Changes are numbered by the printed parent chain. Numbers in names are those of the source.

Key:
[1] = tested on: Influenza A/WSN/33 (H1N1); experiment: microbe, parasite or virus in culture; type: cell-based; conditions: ribavirin (positive control) at 30 μM, read-out: Inhibitory Rates, anti-influenza A virus activity
[2] = substrate: O=C1C[C@@](O)(c2ccc(O)cc2)Oc2cc(O)cc(O)c21; experiment: Kinetic parameters of AbCGT variant V183E; type: biochemical, Aloe barbadensis; conditions: other: V183E, UDP-Glc as donor; pH 7.4; 30.0 °C
Method: (§1) Assays were performed in a final volume of 100 μL 50 mM Tris-HCl (pH 7.4) at 30 °C, and contained purified recombinant AbCGT (1.5 μg) and saturating UDP-Glc (5 mM) while varying phloracetophene (11) and phloretin (17) concentrations (5–500 μM), respectively. The reactions terminated by the addition of 200 μL of ice-cold methanol. Subsequently, samples were centrifuged at 15,000 × g for 30 min to collect the supernatant, and aliquots were analyzed by HPLC as described above. All experiments were performed in triplicate. The value of Km was calculated with the method of Lineweaver–Burk plot.
(§2) Site-saturation mutagenesis of AbCGT at residue 183 was performed by PCR using pET28a-AbCGT as a template and the corresponding degenerate primers, which are listed in Supplementary Table 5. PCR products were purified and transformed into Trans1-T1 (DE3) E. coli. The sequences of pET28a-AbCGT mutants were confirmed by sequencing, and transformed into Transetta (DE3) E. coli for heterologous expression following protein purification.

[3] = substrate: O=C1C[C@@](O)(c2ccc(O)cc2)Oc2cc(O)cc(O)c21; experiment: Kinetic parameters of AbCGT variant V183D; type: biochemical, Aloe barbadensis; conditions: other: V183D, UDP-Glc as donor; pH 7.4; 30.0 °C
Method: as §1, §2

NC(=O)c1ncn([C@@H]2O[C@H](CO)[C@@H](O)[C@H]2O)n1 [Ribavirin, reference compound]
inhibition at 30 µM [1]: 85.6%

B1: AbCGT V183E (Aloe vera; V183E) (protein)
chain: MSNSGRPHVALLPSAGMGHLTPFCRLAALLSSRGGGDLDVSFITAEPTVSLKEYLQIRDLLSSFPSIKSHRFKVPELSPSQFPSSPDPFFQQWESIRRCAHLLPPLLASATALIIDTASASAVLPVAKQLNIPAYILFTSSASMLSLVAHFPSHVISSTSPSAPLMSNILIPGLKHPVPAAWEPPPLHVPGHIFSTLTVDNGRCLPEADGVIINTFDALEPEVLAALNGGRVAHGLPRVFAVGPLVAPPPPQQMEETGGGDYPIAWLDRQRDKSVVYVSFGSRTAMSPEQIRELAAGLERSGCSFLWVIKTKKVDRDEEETDLGALLGEGYVERVKGRGLVVNGWVEQEEILRHRAVGGFVSHCGWNSVTEAAVAGVRVLCWPRMGDQRLNAEVVRRSGVGVWMEEWSWEAEGGVVGGEEIGRRVKEMMEDEGLRDSAERVAEEARVALGVGGTSSKEMEEFISRIMMGS
Km [2]: 325.4 ± 19.2 µM | kcat/Km [2]: 0.0348 M⁻¹ s⁻¹

B2: AbCGT V183D (Aloe vera; V183D) (protein)
chain: B1 chain with E183D
Km [3]: 209.3 ± 14.3 µM | kcat/Km [3]: 0.0283 M⁻¹ s⁻¹
